Reference: the supplement of paper PMC11246515
± gives the standard deviation of the averaged measurements.

Assay: total protein half-life in vivo (active degradation + dilution); higher = more stable protein
[1] = E. coli NCM3722 delta-clpP delta-lon delta-hslV, growth: N-lim chemostat, doubling time 6 h
[2] = E. coli NCM3722 delta-hslV, growth: N-lim chemostat, doubling time 6 h
[3] = E. coli NCM3722 delta-lon, growth: N-lim chemostat, doubling time 6 h
[4] = E. coli NCM3722 delta-smpB, growth: N-lim chemostat, doubling time 6 h
[5] = wild type E. coli NCM3722, growth: C-lim chemostat, doubling time 3 h
[6] = wild type E. coli NCM3722, growth: C-lim chemostat, doubling time 6 h
[7] = wild type E. coli NCM3722, growth: C-lim chemostat, doubling time 12 h
[8] = wild type E. coli NCM3722, growth: N-lim chemostat, doubling time 6 h
[9] = wild type E. coli NCM3722, growth: N-lim chemostat, doubling time 12 h
[10] = wild type E. coli NCM3722, growth: P-lim chemostat, doubling time 6 h
[11] = wild type E. coli NCM3722, growth: P-lim chemostat, doubling time 12 h
[12] = E. coli NCM3722 delta-clpP, growth: N-lim chemostat, doubling time 6 h

MRKGCFGLVSLVLLLLVGCRSHPEIPVNDEQSLVMESSLLAAGISAEKPFLSTSDIQPSASSTLYNERQEPVTVHYRFYWYDARGLEMHPLERPRSVTIPAHSAVTLYGSANFLGAHKVRLYLYL
total protein half-life in vivo [1]: 5.4 ± 0.33 h | total protein half-life in vivo [2]: 5.89 ± 0.42 h | total protein half-life in vivo [3]: 5.86 ± 0.36 h | total protein half-life in vivo [4]: 5.34 ± 0.22 h | total protein half-life in vivo [5]: 2.84 h | total protein half-life in vivo [6]: 5.52 h | total protein half-life in vivo [7]: 9.893 ± 0.025 h | total protein half-life in vivo [8]: 5.33 h | total protein half-life in vivo [9]: 10.1 h | total protein half-life in vivo [10]: 5.79 h | total protein half-life in vivo [11]: 11.8 ± 0.32 h

MRKIALILAMLLIPCVSFAGLLGSSSSTTPVSKEYKQQLMGSPVYIQIFKEERTLDLYVKMGEQYQLLDSYKICKYSGGLGPKQRQGDFKSPEGFYSVQRNQLKPDSRYYKAINIGFPNAYDRAHGYEGKYLMIHGDCVSIGCYAMTNQGIDEIFQFVTGALVFGQPSVQVSIYPFRMTDANMKRHKYSNFKDFWEQLKPGYDYFEQTRKPPTVSVVNGRYVVSKPLSHEVVQPQLASNYTLPEAK [P0AA99]
total protein half-life in vivo [1]: 0.797 h | total protein half-life in vivo [12]: 0.657 ± 0.077 h | total protein half-life in vivo [2]: 0.844 h | total protein half-life in vivo [3]: 0.64 h | total protein half-life in vivo [4]: 0.689 ± 0.063 h | total protein half-life in vivo [5]: 0.313 ± 0.18 h | total protein half-life in vivo [6]: 1.37 h | total protein half-life in vivo [7]: 1.81 h | total protein half-life in vivo [8]: 0.909 ± 0.048 h | total protein half-life in vivo [9]: 1.54 ± 0.73 h | total protein half-life in vivo [10]: 0.858 ± 0.34 h | total protein half-life in vivo [11]: 1.45 ± 0.56 h

MRKIIHVDMDCFFAAVEMRDNPALRDIPIAIGGSRERRGVISTANYPARKFGVRSAMPTGMALKLCPHLTLLPGRFDAYKEASNHIREIFSRYTSRIEPLSLDEAYLDVTDSVHCHGSATLIAQEIRQTIFNELQLTASAGVAPVKFLAKIASDMNKPNGQFVITPAEVPAFLQTLPLAKIPGVGKVSAAKLEAMGLRTCGDVQKCDLVMLLKRFGKFGRILWERSQGIDERDVNSERLRKSVGVERTMAEDIHHWSECEAIIERLYPELERRLAKVKPDLLIARQGVKLKFDDFQQTTQEHVWPRLNKADLIATARKTWDERRGGRGVRLVGLHVTLLDPQMERQLVLGL
total protein half-life in vivo [1]: 4.16 ± 0.15 h

MRKIKGLRWYMIALVTLGTVLGYLTRNTVAAAAPTLMEELNISTQQYSYIIAAYSAAYTVMQPVAGYVLDVLGTKIGYAMFAVLWAVFCGATALAGSWGGLAVARGAVGAAEAAMIPAGLKASSEWFPAKERSIAVGYFNVGSSIGAMIAPPLVVWAIVMHSWQMAFIISGALSFIWAMAWLIFYKHPRDQKHLTDEERDYIINGQEAQHQVSTAKKMSVGQILRNRQFWGIALPRFLAEPAWGTFNAWIPLFMFKVYGFNLKEIAMFAWMPMLFADLGCILGGYLPPLFQRWFGVNLIVSRKMVVTLGAVLMIGPGMIGLFTNPYVAIMLLCIGGFAHQALSGALITLSSDVFGRNEVATANGLTGMSAWLASTLFALVVGALADTIGFSPLFAVLAVFDLLGALVIWTVLQNKPAIEVAQETHNDPAPQH [P0AA78]
total protein half-life in vivo [6]: 5.93 ± 0.18 h | total protein half-life in vivo [7]: 9.36 ± 0.82 h

MRKITQAISAVCLLFALNSSAVALASSPSPLNPGTNVARLAEQAPIHWVSVAQIENSLAGRPPMAVGFDIDDTVLFSSPGFWRGKKTFSPESEDYLKNPVFWEKMNNGWDEFSIPKEVARQLIDMHVRRGDAIFFVTGRSPTKTETVSKTLADNFHIPATNMNPVIFAGDKPGQNTKSQWLQDKNIRIFYGDSDNDITAARDVGARGIRILRASNSTYKPLPQAGAFGEEVIVNSEY [P0AE22]
total protein half-life in vivo [1]: 6.66 ± 1.4 h | total protein half-life in vivo [2]: 6.31 ± 0.14 h | total protein half-life in vivo [4]: 5.83 ± 0.2 h | total protein half-life in vivo [5]: 3.637 ± 0.033 h | total protein half-life in vivo [7]: 11.7 ± 2.4 h | total protein half-life in vivo [8]: 5.79 ± 0.22 h | total protein half-life in vivo [9]: > 16 h | total protein half-life in vivo [10]: 6.42 ± 0.61 h | total protein half-life in vivo [11]: 13.2 ± 0.27 h

MRKKIEMSLIKSPANGVVIKRKISDGLKEIVSLKEKILLETTAKIQSIEEKREEKFIQGYYDGYTKGIIDEMDNFIPLISLLCSELEKKRINMINDLKSILLKPSEEVDVFIKIFESWVTKLPSISGPVNLHIPTSFKDKSLEVESYFVDKSIWNVHITFHDDKRFVFFTDQFIAEFSPQEFVDNCEQYLINNHCFSPDKVNEICEQARHYLVEKMFETHSLDMNNSVLASPEDL
total protein half-life in vivo [9]: > 16 h

MRKLTALFVASTLALGAANLAHAADTTTAAPADAKPMMHHKGKFGPHQDMMFKDLNLTDAQKQQIREIMKGQRDQMKRPPLEERRAMHDIIASDTFDKVKAEAQIAKMEEQRKANMLAHMETQNKIYNILTPEQKKQFNANFEKRLTERPAAKGKMPATAE
total protein half-life in vivo [12]: 3.6 h | total protein half-life in vivo [3]: 4.86 ± 2.6 h | total protein half-life in vivo [4]: 4.4 ± 1.1 h | total protein half-life in vivo [5]: 2.63 h | total protein half-life in vivo [6]: 4.54 ± 0.28 h | total protein half-life in vivo [7]: 8.06 ± 4.6 h | total protein half-life in vivo [9]: 1.93 h | total protein half-life in vivo [10]: 3.86 ± 0.27 h | total protein half-life in vivo [11]: 6.54 ± 0.43 h

MRKQWLGICIAAGMLAACTSDDGQQQTVSVPQPAVCNGPIVEISGADPRFEPLNATANQDYQRDGKSYKIVQDPSRFSQAGLAAIYDAEPGSNLTASGEAFDPTQLTAAHPTLPIPSYARITNLANGRMIVVRINDRGPYGNDRVISLSRAAADRLNTSNNTKVRIDPIIVAQDGSLSGPGMACTTVAKQTYALPAPPDLSGGAGTSSVSGPQGDILPVSNSTLKSEDPTGAPVTSSGFLGAPTTLAPGVLEGSEPTPAPQPVVTAPSTTPATSPAMVTPQAVSQSASGNFMVQVGAVSDQARAQQYQQQLGQKFGVPGRVTQNGAVWRIQLGPFASKAEASTLQQRLQTEAQLQSFITTAQ
total protein half-life in vivo [1]: 5.56 ± 0.12 h | total protein half-life in vivo [12]: 5.78 ± 0.37 h | total protein half-life in vivo [2]: 6.5 ± 0.56 h | total protein half-life in vivo [3]: 6.29 ± 0.38 h | total protein half-life in vivo [4]: 5.65 ± 0.12 h | total protein half-life in vivo [5]: 3.1 ± 0.15 h | total protein half-life in vivo [6]: 5.89 ± 0.42 h | total protein half-life in vivo [8]: 6.17 ± 0.07 h | total protein half-life in vivo [9]: 13.4 ± 2.2 h | total protein half-life in vivo [11]: 12.38 ± 0.038 h

MRLEFSIYRYNPDVDDAPRMQDYTLEADEGRDMMLLDALIQLKEKDPSLSFRRSCREGVCGSDGLNMNGKNGLACITPISALNQPGKKIVIRPLPGLPVIRDLVVDMGQFYAQYEKIKPYLLNNGQNPPAREHLQMPEQREKLDGLYECILCACCSTSCPSFWWNPDKFIGPAGLLAAYRFLIDSRDTETDSRLDGLSDAFSVFRCHSIMNCVSVCPKGLNPTRAIGHIKSMLLQRNA
total protein half-life in vivo [1]: 6.38 ± 1.4 h | total protein half-life in vivo [12]: 5.1 ± 0.12 h | total protein half-life in vivo [2]: 5.6 ± 0.19 h | total protein half-life in vivo [3]: 5.16 ± 1.2 h | total protein half-life in vivo [4]: 5.06 ± 0.28 h | total protein half-life in vivo [5]: 3.17 ± 0.81 h | total protein half-life in vivo [6]: 6.28 ± 0.13 h | total protein half-life in vivo [7]: 11.9 ± 0.33 h | total protein half-life in vivo [8]: 5.22 ± 0.7 h | total protein half-life in vivo [9]: 10.7 ± 0.97 h | total protein half-life in vivo [10]: 5.138 ± 0.038 h | total protein half-life in vivo [11]: 10.5 ± 0.14 h
